The text below walks through data of US20110077204A1, “Agent for Targeted Drug Delivery To Cerebral Neurons” (Kagoshima University, priority 2006, published 2011).

One data set deals with raphe nuclei. To be noted: in vivo; cited from earlier work.
For data set [1], the system named is brain neurons. To be noted: rat, in vivo.
Data set [2] concerns brain neurons. To be noted: rat, in vivo. This is another data set of the same source.
The test system of the next data set is brain parenchyma. To be noted: injected directly into the cerebrospinal fluid; cited from earlier work.

Take cholera toxin: the “Appearance of label in raphe nuclei” value in the data set on raphe nuclei is “the label appeared in the raphe nuclei”. In the case of cholera toxin B-subunit [CTB], in the data set with brain neurons [1], the “Non-specific infiltration through brain surface or ventricle surface” value is “does not infiltrate indiscriminately through the brain surface or the ventricle surface”; the “Uptake by cerebellar Purkinje cells” value was “accumulated in the neurons of the raphe nuclei and Purkinje cells”; the “Uptake by other cell populations (cerebral neocortex, cerebral paleocortex, hypothalamus, thalamus, brainstem)” value was “incorporated”; the “Uptake by raphe nuclei neurons” value is “accumulated in the neurons of the raphe nuclei and Purkinje cells”. On to horseradish peroxidase [HRP], for which the “Detectable level of uptake of HRP label by neurons” value in the data set on brain neurons [2] is on record as “not confirmed”.

For `N=C(N)c1ccc(/C=C/c2ccc(C(=N)N)cc2O)cc1` [fluorogold], the “Appearance of label in raphe nuclei” value in the data set with raphe nuclei is recorded as “the label appeared in the raphe nuclei”.

B1: glial cell line-derived neurotrophic factor (protein, UniProt P39905 78-211, looked up)
Glial cell line-derived …: SPDKQMAVLPRRERNRQAAAANPENSRGKGRRGQRGKNRGCVLTAIHLNVTDLGLGYETKEELIFRYCSGSCDAAETTYDKILKNLSRNRRLVSDKVGQACCRPIAFDDDLSFLDDNLVYHILRKHSAKRCGCI
notes: neurotrophic factor, literature report
Consider B1, for which, in the data set with brain parenchyma, the “Effect on dopaminergic condition” value is listed as “can improve the dopaminergic condition” and the “Uptake by brain parenchyma” value is “incorporated into brain parenchyma”.
